# Reference: PMC7118133, “Dual functions of Aire CARD multimerization in the transcriptional regulation of T cell tolerance” (Nature Communications, 2020)
# Where a chain is given by its changes, count along the chain named. In names and notes the source's numbering stands.
# B1: mouse Aire (mAire) CARD, wild type (domain or fragment, UniProt Q9Z0E3 1-105, looked up)
# chain: MAGGDGMLRRLLRLHRTEIAVAIDSAFPLLHALADHDVVPEDKFQETLRLKEKEGCPQAFHALLSWLLTRDSGAILDFWRILFKDYNLERYSRLHSILDGFPKDV
# notes: Autoimmune Regulator (Aire), mouse, CARD, aa 1-105, subcloned into pET50; Forms filaments after the NusA tag is cleaved off at the 3C site; also called WT mAire CARD; source: E. coli BL21(DE3), co-expressed with GroEL/ES + trigger factor, purified (Ni-NTA); tag cleaved with HRV 3C protease; not shown: His6-NusA-His6, N-terminal, cleaved
# B2: mouse Aire (mAire) CARD K51A/E52A (domain or fragment, UniProt Q9Z0E3 1-105, looked up)
# chain: B1 chain with K51A, E52A
# notes: Autoimmune Regulator (Aire), mouse, CARD, aa 1-105, subcloned into pET50; source: E. coli BL21(DE3), co-expressed with GroEL/ES + trigger factor, purified (Ni-NTA; tag cleaved with HRV 3C protease); not shown: His6-NusA-His6, N-terminal, cleaved
# B3: mouse Aire (mAire) CARD K53A/E54A (domain or fragment, UniProt Q9Z0E3 1-105, looked up)
# chain: B1 chain with K53A, E54A
# notes: as for B2
# B4: mouse Aire (mAire) CARD R70A/D71A (domain or fragment, UniProt Q9Z0E3 1-105, looked up)
# chain: B1 chain with R70A, D71A
# notes: Autoimmune Regulator (Aire), mouse, CARD, aa 1-105, subcloned into pET50; The results print R70A/D71A, the methods R70A/R71A; also called R70A/R71A (so printed in the methods); source: E. coli BL21(DE3), co-expressed with GroEL/ES + trigger factor, induced at 25 °C for 4 h, purified (Ni-NTA; tag cleaved with HRV 3C protease); not shown: His6-NusA-His6, N-terminal, cleaved
# B5: human Aire (hAire) CARD, wild type (domain or fragment, UniProt O43918 1-106, looked up)
# chain: MATDAALRRLLRLHRTEIAVAVDSAFPLLHALADHDVVPEDKFQETLHLKEKEGCPQAFHALLSWLLTQDSTAILDFWRVLFKDYNLERYGRLQPILDSFPKDVDL
# notes: Autoimmune Regulator (Aire), human, CARD, aa 1-106, subcloned into pET47; Construct His6-3C-hAire CARD; also called WT hAire CARD
# How the values were obtained:
# [1] = molecular target: the molecule itself; test: negative-stain electron microscopy; filament formation of purified mAire CARD variants after cleavage of the NusA tag with HRV 3C (4 °C, 16 h); diluted in TNE buffer (100 mM Tris pH 8, 50 mM NaCl, 10 mM EDTA) to ~50–200 µg/ml, uranyl formate stain; WT in Fig. 1b also denatured and refolded
# [2] = molecular target: the molecule itself; test: negative-stain electron microscopy; filament formation of purified hAire CARD variants refolded from 6 M GdHCl by dialysis (20 mM HEPES pH 7.5, 1 M KCl, 5 mM βME, 16 h, 4 °C) and kept at 4 °C for another 24 h; diluted in TNE buffer to ~50–200 µg/ml, uranyl formate stain
protein,measurement,setting,value
B1,binding result,[1],binds
B2,binding result,[1],binds
B3,binding result,[1],binds
B4,binding result,[1],binds
B5,binding result,[2],binds
